# Source: patent US20170260274A1
# B1: Ranpirnase-DEN-scFv (protein)
# chain: QDWLTFQKKHITNTRDVDCDNIMSTNLFHCKDKNTFIYSRPEPVKAICKGIIASKNVLTTSEFYLSDCNVTSRPCKYKLKKSTNKFCVTCENQAPVHFVGVGSCMVDRGWGNGCGLFGKGGIVEVQLVESGGGLVQPGGSLRLSCAASGFSLTNYGVHWVRQAPGKGLEWLGVIWSGGNTDYNTPFTSRFTISRDNSKNTLYLQMNSLRAEDTAVYYCARALTYYDYEFAYWGQGTTVTVSSGGGGSGGGGSGGGGSDIQLTQSPSFLSASVGDRVTITCRASQSIGTNIHWYQQKPGKAPKLLIKYASESISGVPSRFSGSGSGTEFTLTISSLQPEDFATYYCQQNNNWPTTFGAGTKLEIKR
# modifications: not checked
# What was measured:
# [1] = molecular target: epidermal growth factor receptor (EGFR) (human), P00533; test: flow cytometry, equilibrium binding on EGFR-expressing A431 cells (apparent KD)
# [2] = molecular target: epidermal growth factor receptor (EGFR) (human), P00533; test: cell-based or functional assay
binder,measurement,setting,value
B1,Kd,[1],0.0112 µM
same,"IC50 (nM), cell viability, A431",[2],38 nM
same,"IC50 (nM), cell viability, HNO97",[2],411 nM
same,"IC50 (nM), cell viability, HNO211",[2],18 nM
same,"IC50 (nM), cell viability, HNO410",[2],308 nM
same,"fold increase in potency compared to Ranpirnase-GS-scFv, HNO211 cells",[2],79 fold
